B1: HDV Ribozyme (parent)
chain: GGCCGGCAUGGUCCCAGCCUCCUCGCUGGCGCCGGCUGGGCAACAUUCCGAGGGGACCGUCCCCUCGGUAAUGGCGAAUGGGACCCA

The variants in this series derive from B1. As to the kind of experiment: self-cleavage, relative activity (ratio to wild type); higher = more cleavage; co-transcriptional.
On to GGCCGGCAUGGUCCCAGCCUCCUCGCUGGCGCAGGCUGGGCAACAUUCCGAGGGGACCGUCCCCUCGGUAAUGGCGAAUGCGACCCA, for which the self-cleavage came out at 0.222. On to GGCCGGCAUGGUCCCAGCCUCCUCGCUGGCGCCGGCUGGGCAACAUUCCGAGGGGACCGUCCCCUCGGUGAUGGCGAAUGGGAGCCA, for which the self-cleavage is 0.475. As to UGCCGGCAUGGUCCCAGCCUCCUCGCUGGCGCCGGCUGGGCAACAUUCCGAGGGGAGCGUCCCCUCGGUAAUGGCGAAUGGGACCCA, the self-cleavage was found to be 0.196. The same measure for GGCCGGCAUGGUCCCAGCCUCCUCGCUGGCGCUGGCUGGGCAACAUUCCGAGGGGAGCGUCCCCUCGGUAAUGGCGAAUGGGACCCA: 1.04; for GGCCGGCAUGGUCCCAGCCUCCUUGCUGGCGCCUGCUGGGCAACAUUCCGAGGGGACCGUCCCCUCGGUAAUGGCGAAUGGGACCCA: 0.17; for GGCCGGCAUAGUCCCAGCCUCCUCGCUGGCGCCGGCUGGGCAACAUUCCGAGGUGACCGUCCCCUCGGUAAUGGCGAAUGGGACCCA: 0.84. The same measure for GGCCGGCAUGGUCCCAGCCUCCUCGCUGGCGCCGGCUGGGCAACAUUCCGAGGGGACCGUCCCCGCGGUAUUGGCGAAUGGGACCCA: 0.863; for GGCCGGCAUGGUCCCAGCCUCCUCGCUGGCGCCGGCUGGGCAACAUUCCGAGGGGAACGCCCCCUCGGUAAUGGCGAAUGGGACCCA: 1.01; for GGCCGGCAUGGUCCCAGCCUCAUCGCUGGCGCCGGCUGGGCAACAUUCCGAGGGGACCGUCCCCUCGGUUAUGGCGAAUGGGACCCA: 0.222. The same measure for GGCCGGCAUGGUCCCAGCCUCCUCGCUGGCGCCGGCUGGGCACCAUUCCGAGGUGACCGUCCCCUCGGUAAUGGCGAAUGGGACCCA: 0.374. Regarding GGCCGGCAUGGUCCCAGCCUCCUCGCUGGCGCCGGCUGGGCCACAUUCCGAGGGGACCGUCCCCUCGUUAAUGGCGAAUGGGACCCA, the self-cleavage is 0.128. The same measure for GGCCGGAAUGGUCCUAGCCUCCUCGCUGGCGCCGGCUGGGCAACAUUCCGAGGGGACCGUCCCCUCGGUAAUGGCGAAUGGGACCCA: 0.283; for GGCCGGCAUGGUCCCAGCAUCCUCGCUGGCGCCGGCUGGGCAACAUUUCGAGGGGACCGUCCCCUCGGUAAUGGCGAAUGGGACCCA: 0.0683. The same measure for GGCAGGCAUGGUCCCAGCCUCCUCGCUGGCGCCGGUUGGGCAACAUUCCGAGGGGACCGUCCCCUCGGUAAUGGCGAAUGGGACCCA: 0; for GGCCGGCAUGGUCCCAGACUCCUCGCCGGCGCCGGCUGGGCAACAUUCCGAGGGGACCGUCCCCUCGGUAAUGGCGAAUGGGACCCA: 0.135. Take GGCAGGCAUGGUCCCAGCCUCCUCGCUGGCGCCGGCUGGGCAACAUUCCGAGGGGACCGUCCCCUCGGUAAUGGCGAAGGGGACCCA: the self-cleavage turned out to be 0. The same measure for GGCCGGCAUGGUCCCAGCCUCCUCGCUGGCGCCGGCUGGGCAACAUUCCGAGGGGACCGGCUCCUCGGUAAUGGCGAAUGGGACCCA: 1.05. The same measure for GGCCGGCAUGGUCCCAGCCCCCUCGCUGGCGCCGGCUGGGCAACAUUCCGAGGGGACCGUCCCCUCGAUAAUGGCGAAUGGGACCCA: 0.111.

Regarding GGCCGGCAUGGUCCCAGCCUCCUCGCUGGCGCCAGCUGGGCAACAUUCCGAGGGGACCGUCCCCUCGGUAAUUGCGAAUGGGACCCA, the self-cleavage worked out at 0.0437. The same measure for GGCGGGCAUGGUCCCAGCCUCCUCGCUGGCGCCGGGUGGGCAACAUUCCGAGGGGACCGUCCCCUCGGUAAUGGCGAAUGGGACCCA: 0.0268. With GGCCGGCAUGGUCCCAGCCUCCUCGCUGGCGCCGGCUGGGCAACAUUCCGAGGGGACCGUCCUCUCGGUAAUGGUGAAUGGGACCCA, the self-cleavage amounted to 0.324. The same measure for GGCCGGCAUGGUCACAGCCUCCUCGCUGGCGCCGGCUGGGCAACAUUCCGAGGGGACCGUCCCAUCGGUAAUGGCGAAUGGGACCCA: 0.793; for GGCCGGCAUGGUACCAGCCUCCUCGCUGGCGCCGGCUGGGCAACAUUCCGAGGGGACCGUCGCCUCGGUAAUGGCGAAUGGGACCCA: 0.287. The same measure for GGCCGGCAUGGUAUCAGCCUCCUCGCUGGCGCCGGCUGGGCAACAUUCCGAGGGGACCGUCCCCUCGGUAAUGGCGAAUGGGACCCA: 0.18.

As for GGCAGGCAUGGUCCCAGCCUCCUCGCUGGCGCCGGCUGGGCAACAUUCCGAGGGGACCGUCCCCUCGGUAGUGGCGAAUGGGACCCA, the self-cleavage stood at 0.151. The same measure for GGCCGGCAUGGUCCCAGCCUCCUCGCUGGCGCCGGCUGGGGAACAUUCCGAGGGGACCGUCCCCUCGGUAACGGCGAAUGGGACCCA: 0.201; for GGCCGGCAUGGUCCCAGCCUCCUCGCUUGCGCCGGCUGGGCAACAUUCCGAGGGGACCGUCCCCUCGGUAAUGGCGUAUGGGACCCA: 0.0707.

On to GGCCGGCAGGGUCCCAGCCUCCUCGCUGGCGCCGGCUGGGCAACAUUCCGAGGGGACCGUCCCCUCGGUCAUGGCGAAUGGGACCCA, for which the self-cleavage was 0.886. Turning to GGCCGGCAUGGUCCCAGCCUCCUCGCUUGCGCCGGCUGGGCAACAUUCCGAGGGGACCGUCCCCUCGGUAAUGGCGAAUGGGACACA, the self-cleavage was 0.203. The same measure for GGCCGGCAUGGUCCCAGCCUCCUCGCUGGAGCCGGCUGGGCAACAUUCCGAGGGGACCGUCCCCUAGGUAAUGGCGAAUGGGACCCA: 0.582; for GGGCGGCAUGGUCCCAGCCUCCUCGCUGGCGCCGGCUGGGCAACAUUCCGUGGGGACCGUCCCCUCGGUAAUGGCGAAUGGGACCCA: 0.768; for GGCCGGCAUGGUCCCAGCCUCCUCGCUGGCUCCGGCUAGGCAACAUUCCGAGGGGACCGUCCCCUCGGUAAUGGCGAAUGGGACCCA: 0.109. The same measure for GGCCGGCAUGGUCCCAGCCUCCUCGCUGGCGCCGGCUGGGCAACAUUCCUAGGGGACCGUCCCCUCGGUAAUGGCGAAUGGGACCCA: 0.989. GACCGGCAUGGUCCCAGCCUCCUCGCUGGCGCCGGCUGGGCAACAUUCCGAGGGGACCGUCCCCUCGGUAAUGGCGAAUAGGACCCA: the self-cleavage was determined as 0.0735. Consider GGCCGGCAUGGUCCCAGCCUCCUCGCUGGCGCCGGCUGGGCAACAUUCCGACGGGACCGUUCCCUCGGUAAUGGCGAAUGGGACCCA, for which the self-cleavage was found to be 0.963. The same measure for GGCCGGCAUGGUCCCAGCCUCCUGGCUGGCGCCGGCUGGGCAACAUUCCGAGGGGACCGUCCCCCCGGUAAUGGCGAAUGGGACCCA: 0.224. GGCCGGCAUGGUCCCAGCCUCCUCGCUGGCGCCGGCUGGGCAACAGUCCGAGGGGACCGUCCCCUCGGUAAUGGCGAAUGGGACGCA: the self-cleavage was 0.665. The same measure for GGCCGGCAUGGUCCCAGCCUCCUCGCUGGCGCCGGCUGGGCAACAUUCCGAGGGGACCGUCCCCUCGGUAAUGGCGAUUGGUACCCA: 0.197; for GGCCGGCAUGGUCCCAGCCUCCUCGCUGGCGCCGGCUGGGCAACAUUCCGAGGGGAACGUACCCUCGGUAAUGGCGAAUGGGACCCA: 1.05; for GGCCGGCAUGGUCCCAGCCUCCUCGCUGGCGCCGGCUGGGCAACAUUUCGAGGGGACCCUCCCCUCGGUAAUGGCGAAUGGGACCCA: 1.23.

Take GGAAGGCAUGGUCCCAGCCUCCUCGCUGGCGCCGGCUGGGCAACAUUCCGAGGGGACCGUCCCCUCGGUAAUGGCGAAUGGGACCCA: the self-cleavage stood at 0.0542. For the variant GGCCGGCAUGGGCCCAGCCUCCUCGCUGGCGCCGGCUGGGCAACAUUCCGAGGGGACCGUCCCCUCGGUAAUGGCGAAUCGGACCCA, the self-cleavage is 0.0791. Turning to GGCCGGCAUGGUCCCAGCCUCCUCGCUGGCGCCGGCUGGGCAACAUUCCGAGCGGACCGUCCCCUCGGUAAUGGCGAAUGGGAACCA, the self-cleavage was 0.76. The same measure for GGCCGGCAUGCUCCCAGCCUCCUCGCUGGCGCCGGCUGGGCAACAUUCCGAGGGGACCGUCCCCUCGGUAAUGGCGAAUGGGACCCU: 0.453; for GGCCGGCAUGGUCCCAGCCUCCUCGCUGGCGCCGGCUUGGCAACAUUCCGAGGGGACCGUCCCCUCGGUAAUGGCGAAUGGGAACCA: 0.174; for GGCCGGCAUGGUCCCAGCCUCCUCGCUGGCGCCGGCUGGGCAACCUUCCGAGGGGACCGUCCCCGCGGUAAUGGCGAAUGGGACCCA: 0.745. Turning to GGCCGGCGUGGUCCCAGCCUCCUCGCUGGCGCCGGCUGGGUAACAUUCCGAGGGGACCGUCCCCUCGGUAAUGGCGAAUGGGACCCA, the self-cleavage was 0.917.

On to GGCCGGCAUGGUCCCAGCCUCCUCGCUGGCGCCGGCUGGGCAACAUUCCCAGGGGCCCGUCCCCUCGGUAAUGGCGAAUGGGACCCA, for which the self-cleavage was 0.978.

Regarding GGCCGGCAUGGUCCCAGCCUCCUCGCUGGCGACGGCUGGGCAACAUUCCGAGGGGACCGUCCCCUCGGUAAUGGCGAAUGGGAUCCA, the self-cleavage is 0.0536. Take GGCCGGCAUGGUCCCAUCCUCCUCGCUGGCGCCAGCUGGGCAACAUUCCGAGGGGACCGUCCCCUCGGUAAUGGCGAAUGGGACCCA: the self-cleavage was 0.13.

In the case of GGCCGGCAUGGUCCCAGCCUCCUCGCAGGCGCCGGCUGGGCAACAUUCCGAGGGGACCGUCCGCUCGGUAAUGGCGAAUGGGACCCA, the self-cleavage is 0.764. With GGCCAGCAUGGUCCCAGCCUCCUCGCUGGCGCCGGCUGGGCAACAUUCCGACGGGACCGUCCCCUCGGUAAUGGCGAAUGGGACCCA, the self-cleavage amounted to 0.253.

Take GGCCGGCAUGGACCCAGCCUCCUCGCUGGCGCCGGCUGGGCAACAUUCCGAGGGGACCGUCCCCUCGAUAAUGGCGAAUGGGACCCA: the self-cleavage was found to be 0.155.

In the case of GGCCGGCAUGCUCCCAGCCUCCUCGCUGGCGCCGGCUGGGCAUCAUUCCGAGGGGACCGUCCCCUCGGUAAUGGCGAAUGGGACCCA, the self-cleavage amounted to 0.0583. With GGCCGGCAUGGUCCCAGCCUCCUCGCUGGCGCCGGCUGGGCAACAUUCCGAGGGGACUGUCCCCCCGGUAAUGGCGAAUGGGACCCA, the self-cleavage is 1.03. The same measure for GGCCGGCAUGGUCCCAGCCUCCUCGCUGGCGCCGGCUGGGCAACAUUCCGAGGGGACCGUCCCCUCAGUAAUGGCGAAUGGGCCCCA: 0.464; for GGCCGGCAUGGUCCCAGCCUCCGCGCUGGCGCCGGCUGGGCAACAUUCCGAGGGGACCGUCCCCUCGGUAAUGGAGAAUGGGACCCA: 0; for GGCCGGCAUGGUCCCAGCCUCCUCGCUGGCGCCGGCUGGGCAAAAUUCCGAGGGGACCGUCCCCUCGGUAAUGGUGAAUGGGACCCA: 0.218.

For the variant GGCCGGCAUGGUCCCAGCCUCCACGCUGGCGCCGGCUGGGCAACAUUCCGAGGGGACCGCCCCCUCGGUAAUGGCGAAUGGGACCCA, the self-cleavage stood at 1.16. The same measure for GGCCGGCAUGGACCCAGCCUCCUCGCUGGCGCCGGCUGGGCAACAUUCCGAGUGGACCGUCCCCUCGGUAAUGGCGAAUGGGACCCA: 0.318; for GGCCGGCAUGGUCCCAGCCUCCUCCCUGGCGCCGGCUGGGCAACAUUCCGAGGGGACCGUCCCCUCGGUAAUGGCGAAUGGGACACA: 0.0594. The same measure for GGGUGGCAUGGUCCCAGCCUCCUCGCUGGCGCCGGCUGGGCAACAUUCCGAGGGGACCGUCCCCUCGGUAAUGGCGAAUGGGACCCA: 0.0171; for GGCCGGAAUGGUCCCAGCCUCCUCGCUGGCGCCGGCUGGGCAACAUUCCGAGGGGACCGUACCCUCGGUAAUGGCGAAUGGGACCCA: 0.692; for GGCCGGCAUGGUCCCAGCCUCCUCGCUCACGCCGGCUGGGCAACAUUCCGAGGGGACCGUCCCCUCGGUAAUGGCGAAUGGGACCCA: 0.0692.

Source of the values: the RNAGym collection of RNA variant scans (doi:10.7554/elife.80360).
